experiment: purified protein yield per well (BCA); higher = higher soluble expression
Description: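 Candidate PET hydrolases were expressed in E. coli C41(DE3) in 2 mL autoinduction cultures in 24-deep-well plates, Ni-bead purified and released by SUMO protease cleavage on an OT-2 robot. Yield per well was measured by BCA; values below 25 ug (0.1 mg/mL) are below the detection threshold. Melting temperature was measured by differential scanning fluorimetry with Sypro Orange, ramping from 25 C at 0.3 C/step.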

Q: For “ADNPYERGPDPTEASIEAPRGPYAVAEKSVSALEATGFGGGTIHYPTSTAEGTFGAVAIAPGYTALQSSVAWLGPRLASQGFVVITIDTHTTVDQPASRGDQLLAALDHLTRRDSVRSRVDSGRLGVMGHSMGGGGSLEAAKDRPSLQAAIPLTGWNLDKTWSEVRVPTMLIGADGDTIAPVATHSQPFYESLPSTLDRAYLELNDAGHFTPNAPDTTIAKYSVSWLKRFIDNDTRYEQFLCPLPRPSRTIDEYRGNCPHTS [TEP143]”, which “purified protein yield per well” value is on record?
A: < 25 µg

Q: With “ADNPYERGPDPTEQLIESARGPFATAQTRVSSLSVTGFGGGVIYYPTDTSQGTFGAVAISPGFTADWTSLDWLGPRLASHGFVVIGIDTITRLDQPDSRGRQLLAALDYLTQRSSVRSRVDASRLAVAGHSMGGGGSLEAAKSRTSLKAAIPLAPWNLDKTWPEVVTPTMIFGGELDTVAPVSTHAIPFYNSLTNAREKAYLEIDNGSHFFPNVSNTLVAKYMISWLKRYVDNDTRYEQFLCPVPDDRGLSDSRGTCPGS [TEP135]” as the sequence, how does the “purified protein yield per well” value read?
A: < 25 µg

Q: With “ADNPYERGPNPTESSIEATRGHYSVSEESVSSLAPGFGGGTIYYPTTRTDGTFGAVAVVPGYTASESSIEWLGARVASQGFVVFTIDTTTRLDQPAQRGDQLLAALDYLTERSDVADRVDPSRLAVMGHSMGGGGTLEAAKDRPSLKAIIPMTPWNLDKTWGDVEVPMLDFGAEYDSIASPASHAKPFYNTHGGEKMYIELNSAGHFAPNSSNTTIAKYSISWLKRWVDNDTRYTQFLCPTPTSWLYIEESASTCGF [TEP142]” as the sequence, how does the “purified protein yield per well” value read?
A: < 25 µg

Q: With “ADNPYQRGPDPTERSVTARRGPFAIDEISVNGGIGAGFNRGTIFYPTDRSQGTFGAVAVIPGFLSPESLVRWFGPRLASQGFVVMTLTTNGLTDTPESRSEQLLAALDYLTTRSQVRDRIDPSRLAVMGHSMGGGGSLAAAAKRPTLRAAIPLAPWSLTKNWSNLTVPTLIIGAENDNVAPVAGHSERFYDSMTNVPEKAYLEMAGGNHVDPTAESDLVAKFTISWLKRFVDDDTRYDQFLCPAPRPNRQISEYRDTCPHS [DP029]” as the sequence, how does the “purified protein yield per well” value read?
A: < 25 µg

Q: With “ADNPYQRGPDPTLAGVAASRGPFATAQMSVAPGNGFNGGTVYYPTDTSAGTWGAVAIVPGYTALFADEEAWMGPWLSSFGFVVIGIETNSRTDYDAARGTQLLAALDYLTQRSPVRDRVDTSRLSVIGHSMGGGGVVYASEHRPSLKAAVALAPFSPSQNMSTDQVPTMVMAGQNDTVVTPSYLDGLYATMPAAAQSDFVQIAGADHVYYTHPQSTEMRLLIPWLKIFVDNDTRYTQFLCPSLADPSGISIYHSKCPYVPPGGTTSGGTTSGGTTTGGTTTGGTTTGGTTTGGTTTGGTVGGGTTSGGTSGGACTATYTTVNTWSGGFQGEVKVTAGGQPISGWTVRWTLGSGQSISQVWNGAVTTSGSDVSVGNVSYNGSLQPSTSTTFGFLGAGAPTDASLSCTSP [ESM049]” as the sequence, how does the “purified protein yield per well” value read?
A: < 25 µg

Q: For “ADNPYQRGPDPTRSSVAASRGTFATAQVGVPAGNGFGGGVIYYPTDTSQGTFGAVAIVPGYTAKWAAEGAWTGPWLASFGLVVIGIDTNSANDFDVARDRQLPAALDYLAQRGSVRGRVDTTRLAAMGHSMGGGGALNAALRRPSSKAAVGSAPYKPSGNLASDRVATLLLAGQNDTTVTPSYVDGLHRSIPATTEKGYVELSGAGHAFPTRANSTQMRVVTPWLKVFLDDDARYSQFLCPLMDSAGINRYGSTCPLLPPDGSTGSSSSLVGSGFGKCLDAGAGQDRSKVTITSCTGGGGQKWVFNTNGTITDPQSGRCLDVDARGTADNTAVATWTCHGESNQVWTRRA [ESM189]”, which “purified protein yield per well” value is on record?
A: < 25 µg

Q: With “ADNPYQRGPDPTVASVAATRGPFATAQLTVPAGNGFGGGYLYYPTDTSQGTWGAVAIVPGYSALFANEEAWMGPWLASFGFVVIGVETITRTDGADARATELLAALDYLTQRSAVRDRIDATRLAVMGHSAGGAGTILAAEQRPSLKAGVGLAPGTPGSLSLATDKVPMMVVGGQTDPTVTPAYLDNLYAGMPATTPSDFVQIAGADHLFFTRANNTEMKVLIPWLKIFLDNDTRYTQFLCPSLADPSGISLYRSKCPYLPPGTPSPSPSVSPSNPAAGCTASYRTVGSWPGGFQGEVTVTAGGAALNGWTVGWTLGSGQTITQVWNGTLTTSGSAVTVRNASYSGSVPAGGSITFGFLAAGTPSVPALTCAG [ESM028]” as the sequence, how does the “purified protein yield per well” value read?
A: < 25 µg

— the supplement of paper PMC12455559
